Experimental data reported in publication PMC12209456, “Serine/threonine/tyrosine kinase 1 drives pancreatic carcinogenesis via GSK3β sequestration-mediated Wnt/β-catenin pathway hyperactivation” (Signal Transduction and Targeted Therapy, 2025).

B1: Wnt3a: Wnt3a, R&D systems (5036-WN) (protein, UniProt P56704 19-352, looked up)
Protein Wnt-3a: SYPIWWSLAVGPQYSSLGSQPILCASIPGLVPKQLRFCRNYVEIMPSVAEGIKIGIQECQHQFRGRRWNCTTVHDSLAIFGPVLDKATRESAFVHAIASAGVAFAVTRSCAEGTAAICGCSSRHQGSPGKGWKWGGCSEDIEFGGMVSREFADARENRPDARSAMNRHNNEAGRQAIASHMHLKCKCHGLSGSCEVKTCWWSQPDFRAIGDFLKDKYDSASEMVVEKHRESRGWVETLRPRYTYFKVPTERDLVYYEASPNFCEPNPETGSFGTRDRTCNVSSHGIDGCDLLCCGRGHNARAERRREKCRCVFHWCCYVSCQECTRVYDVHTCK
B2: EGF: EGF (100 ng/mL) treatment (protein, UniProt P01133 23-1207, looked up)
Pro-epidermal growth factor: PQHWSCPEGTLAGNGNSTCVGPAPFLIFSHGNSIFRIDTEGTNYEQLVVDAGVSVIMDFHYNEKRIYWVDLERQLLQRVFLNGSRQERVCNIEKNVSGMAINWINEEVIWSNQQEGIITVTDMKGNNSHILLSALKYPANVAVDPVERFIFWSSEVAGSLYRADLDGVGVKALLETSEKITAVSLDVLDKRLFWIQYNREGSNSLICSCDYDGGSVHISKHPTQHNLFAMSLFGDRIFYSTWKMKTIWIANKHTGKDMVRINLHSSFVPLGELKVVHPLAQPKAEDDTWEPEQKLCKLRKGNCSSTVCGQDLQSHLCMCAEGYALSRDRKYCEDVNECAFWNHGCTLGCKNTPGSYYCTCPVGFVLLPDGKRCHQLVSCPRNVSECSHDCVLTSEGPLCFCPEGSVLERDGKTCSGCSSPDNGGCSQLCVPLSPVSWECDCFPGYDLQLDEKSCAASGPQPFLLFANSQDIRHMHFDGTDYGTLLSQQMGMVYALDHDPVENKIYFAHTALKWIERANMDGSQRERLIEEGVDVPEGLAVDWIGRRFYWTDRGKSLIGRSDLNGKRSKIITKENISQPRGIAVHPMAKRLFWTDTGINPRIESSSLQGLGRLVIASSDLIWPSGITIDFLTDKLYWCDAKQSVIEMANLDGSKRRRLTQNDVGHPFAVAVFEDYVWFSDWAMPSVMRVNKRTGKDRVRLQGSMLKPSSLVVVHPLAKPGADPCLYQNGGCEHICKKRLGTAWCSCREGFMKASDGKTCLALDGHQLLAGGEVDLKNQVTPLDILSKTRVSEDNITESQHMLVAEIMVSDQDDCAPVGCSMYARCISEGEDATCQCLKGFAGDGKLCSDIDECEMGVPVCPPASSKCINTEGGYVCRCSEGYQGDGIHCLDIDECQLGEHSCGENASCTNTEGGYTCMCAGRLSEPGLICPDSTPPPHLREDDHHYSVRNSDSECPLSHDGYCLHDGVCMYIEALDKYACNCVVGYIGERCQYRDLKWWELRHAGHGQQQKVIVVAVCVVVLVMLLLLSLWGAHYYRTQKLLSKNPKNPYEESSRDVRSRRPADTEDGMSSCPQPWFVVIKEHQDLKNGGQPVAGEDGQAADGSMQPTSWRQEPQLCGMGTEQGCWIPVSSDKGSCPQVMERSFHMPSYGTQTLEGGVEKPHSLLSANPLWQQRALDPPHQMELTQ
modifications: Pro-epidermal growth factor
notes: EGF (100 ng/mL) treatment

Experiments:
[1] = test system: GSK3β sequestration in Rab5+ endosomes, PANC-1 cells; test: Wnt-induced GSK3β within Rab5+ endosomes, PANC-1 cells; assay type: cell-based, human; settings: Rab5 Q79L, n = 10
Method: (§1) PANC-1, AsPC-1, HEK293T, or HeLa cells were ﬁxed with 4% formaldehyde for 10-15 min and then blocked with 3% BSA and 0.1% Triton X-100 in PBS for 20 min at room temperature. Immunostaining was performed using the indicated antibody. Nuclei were counterstained with DAPI. Images were taken with a Leica Inverted Confocal SP8 (Leica, Germany).

[2] = test system: GSK3β in MVBs; test: Co-localization of GSK3β with Rab7 and CD63 (immunofluorescence); assay type: cell-based
Method: as §1

[3] = test system: β-catenin/TCF4 transcriptional activity; test: 7TGC reporter assay; assay type: cell-based, human; settings: PANC-1 cells, EGF (100 ng/mL) or CQ (100 μM)
Excerpt: The PCR products of STYK1, GSK3β, and Axin1 were cloned into pcDNA3.1-3×HA, pCMV-3×Flag (Sigma, E4401), and pCMV-mCherry (constructed by our lab) respectively. […] To make STYK1, β-catenin, GSK3β, or BLK mutants or truncations, a series of forwarding primers harboring the desired mutations were used in PCRs. The nucleotide sequences of all constructs were confirmed by DNA sequencing. […] DNA and interference RNA were transfected with Lipofectamine 3000 (Invitrogen, L3000015) according to the manufacturer’s instructions. shRNA for STYK1 #1: 5ʹ- [sequence] -3ʹ. #2: 5ʹ- [sequence] -3ʹ. siRNA for STYK1 was 5ʹ- [sequence] -3ʹ. siRNA for β-catenin was 5ʹ- [sequence] -3ʹ. siRNA for HRS was 5ʹ- [sequence] -3ʹ, siRNA for VPS24 was 5ʹ- [sequence] -3ʹ.

[4] = test system: CyclinD1/Axin2/C-myc; test: Wnt target gene expression (western blot, qRT-PCR); assay type: cell-based, human; settings: PANC-1 cells, EGF (100 ng/mL) or CQ (100 μM)
Method: Whole-cell extracts were prepared with 1% sodium dodecyl sulfate lysis buffer with freshly added 1% proteinase inhibitor cocktail (Biomake, B14001) and 1 mM phenylmethylsulfonyl fluoride (PMSF, MCE, HY-B0496). Western blot was performed as described previously.[20]
Total RNA was extracted from cultured pancreatic cancer cells using Trizol reagent (Invitrogen) according to the manufacturer’s protocol. qRT-PCR was performed as previously described.^3 The mRNA expression level for each sample was normalized to the expression of GAPDH using the 2 ^-ΔΔct method^4 with three biological replicates of comparative qRT-PCR. The following primer sequences were used for qRT-PCR: GAPDH, (forward) 5′- […] -3′ and (reverse) 5′- […] -3′; CyclinD1, (forward) 5′- […] -3′ and (reverse) 5′- […] -3′; C-myc, (forward) 5′- […] -3′ and (reverse) 5′- […] -3′; Axin2, (forward) 5′- […] -3′ and (reverse) 5′- […] -3′; STYK1, (forward) 5′- […] -3′ and (reverse) 5′- […] -3′. Amplification was performed in an ABI Q3 real-time PCR system using a SYBR Green master mix (YEASEN, 11201ES08).

Row | Molecule | amount of GSK3β within Rab5+ endosomes [1] | separation of GSK3β into MVBs ([2]; Wnt activation, discussion summary) | co-localization of GSK3β with Rab7 and CD63 ([2]; under Wnt3a treatment) | Wnt signaling in the 7TGC system [3] | STYK1-mediated alteration of the Wnt/β-catenin target genes C-myc, Axin2 [4]
1 | B1 | remarkably increased the amount of GSK3β within Rab5^+ endosomes | supports the separation of GSK3β into MVBs | detectable co-localization with Rab7 and CD63 |  | 
2 | B2 |  |  |  | decreased Wnt signaling in the 7TGC system | down-regulated STYK1-mediated alteration of the Wnt/β-catenin target genes C-myc, Axin2
